# Patent US20250270343A1 (Alector, published 2025)
# T1: soluble cynomolgus GPNMB (recombinant extracellular domain) (cynomolgus, UniProt Q14956 23-499 (human entry), limits assumed)
# T1 chain: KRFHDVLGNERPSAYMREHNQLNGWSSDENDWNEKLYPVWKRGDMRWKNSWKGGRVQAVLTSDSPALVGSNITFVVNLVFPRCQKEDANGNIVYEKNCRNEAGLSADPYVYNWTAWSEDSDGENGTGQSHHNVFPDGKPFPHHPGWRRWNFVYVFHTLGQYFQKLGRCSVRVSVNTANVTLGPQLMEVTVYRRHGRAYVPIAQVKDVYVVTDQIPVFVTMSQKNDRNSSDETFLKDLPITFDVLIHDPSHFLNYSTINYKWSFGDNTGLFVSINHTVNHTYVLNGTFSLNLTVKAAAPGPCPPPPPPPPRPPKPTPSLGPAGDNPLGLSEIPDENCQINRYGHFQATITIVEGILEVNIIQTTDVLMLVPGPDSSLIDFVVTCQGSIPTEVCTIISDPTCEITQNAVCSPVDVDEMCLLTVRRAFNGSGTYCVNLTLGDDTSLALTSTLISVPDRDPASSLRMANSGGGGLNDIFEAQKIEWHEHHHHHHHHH
# T2: mouse GPNMB endogenously expressed on B16F10 cells (mouse, UniProt Q99P91 23-574)
# T2 construct: whole, on cells; also called moGPNMB
# T2 sequence (looked up): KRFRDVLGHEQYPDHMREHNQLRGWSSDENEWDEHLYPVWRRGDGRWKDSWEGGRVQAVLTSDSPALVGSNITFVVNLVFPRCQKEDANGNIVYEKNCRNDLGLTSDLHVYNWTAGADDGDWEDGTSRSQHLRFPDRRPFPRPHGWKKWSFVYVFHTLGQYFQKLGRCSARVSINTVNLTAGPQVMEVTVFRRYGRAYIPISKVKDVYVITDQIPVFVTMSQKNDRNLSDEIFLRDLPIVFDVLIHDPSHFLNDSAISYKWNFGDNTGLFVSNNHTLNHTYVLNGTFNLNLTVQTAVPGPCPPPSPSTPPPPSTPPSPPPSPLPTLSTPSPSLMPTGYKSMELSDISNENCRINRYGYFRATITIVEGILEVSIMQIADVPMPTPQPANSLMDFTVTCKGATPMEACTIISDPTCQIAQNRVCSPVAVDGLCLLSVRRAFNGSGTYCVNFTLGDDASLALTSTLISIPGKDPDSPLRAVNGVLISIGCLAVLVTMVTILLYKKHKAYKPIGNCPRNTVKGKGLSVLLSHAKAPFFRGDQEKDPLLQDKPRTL
# Assays:
# [1] = biological target: T1, soluble cynomolgus GPNMB (recombinant …); test: SPR binding
# Method: Binding kinetics of human anti-GPNMB IgG1 antibodies of the present disclosure to human, cynomolgus, and mouse GPNMB were evaluated using a Carterra LSA instrument (Carterra, Salt Lake City, UT). […] A HC200M sensor chip (Carterra) was activated using the single channel flow cell with a 7-minute injection of a 1:1:1 mixture of 100 mM MES pH 5.5, 100 mM sulfo-NHS, 400 mM EDC (all reconstituted in MES pH 5.5; 100 μl of each mixed in vial immediately before running assay). After switching to the multi-channel array flow cell, the antibodies were injected over the activated chip in a 96-spot array for 15 minutes. The remaining unconjugated active groups on the chip were then blocked by injecting 1M Ethanolamine pH 8.5 (Carterra) for 7 minutes using the single channel flow cell.
# After priming with running buffer (HBS-EP+, Teknova) with 0.5 mg/ml BSA (Sigma), the immobilized anti-GPNMB antibodies were tested for their ability to bind to several forms of recombinant GPNMB extracellular domain, including human, cynomolgus, and mouse orthologs as described above. Estimates of affinity were generated by injecting each analyte over the entire antibody array using the single channel flow cell. GPNMB analytes were diluted to 2.5, 7.4, 22, 67, 200, and 600 nM in running buffer, and injected in serial from lowest to highest concentration without regeneration. Two buffer blanks were run between each series (one species per series). Data were processed and analyzed using Kinetics high-throughput kinetics analysis software (Carterra).
# [2] = biological target: T2, mouse GPNMB endogenously expressed on …; test: FACS titration, B16F10 cells
# Method: Cell-based binding measurements were also performed to measure the apparent affinities of anti-GPNMB antibodies of the present disclosure to cell-surface expressed GPNMB. Serial dilutions of the monoclonal anti-GPNMB antibodies were added to 100,000 Freestyle293-huGPNMB+ or B16F10 cells and allowed to achieve binding equilibrium at 4° C. After addition of fluorescently labeled secondary antibody and brief washing steps, MFI values as a function of titrated antibody concentration was recorded via FACS analysis. Curves were fit using nonlinear regression analysis with Graphpad Prism 6 software.
binding result [1],EC50 [2] [nM],Binder
binds,76.5,"anti-GPNMB antibody GPN-42 (antibody, human IgG1, V domains shown, chimeric) VH: DVKLVESGEDLVKPGGSLKLSCAASGFTFSSYAMSWVRQTPEKRLEWVAYISSGGDYIYYADTVKGRFTISRDNARNTLYLQMSSLKSEDTAMYYCTRDRYYDYDVRDYYTMDYWGQGTSVTVSS VL: DVMMTQTPLSLPVSLGDQASISCRSSQSLVHSNGNTYLHWFLQKPGQSPKLLIFRVSNRFSGVPDRFSGRGSGTDFTLKISRVEAEDLGVYFCSQTTHVPRTFGGGTTLEIK"
binds,5.38,"anti-GPNMB antibody GPN-38 (antibody, human IgG1, V domains shown, chimeric) VH: QVQLQQPGAELVRPGTSVRLSCKASGYTFTSYWIHWVKQRPGRGLEWIGVIDPSDSYTNYNQQFNVKATLTVDTSSSAAYMQLSSLTSEDSAVYYCARGLITAVNWYFDVWGTGTTVTVSS VL: DIQMTQSPASLSTSVGEIVTITCRASENIYSYLTWYQQKQGKSPQLLVYNAKTLAEGVPSRFSGSGSGTQFSLKINSLQPEDFGTYYCQHHYGTPLTFGSGTKLEIK"
binds,2.62,"anti-GPNMB antibody GPN-41 (antibody, human IgG1, V domains shown, chimeric) VH: QLQLQQSGTEVVKPGASVKIPCKASGYAFSSYWMNWVKQRPGKGLEWIGQIYPGDGDTNDNGKFEGKATLTVDKSSNTAYIQLSSLTSEDSAVYFCARSPLHLRGSMDYWGQGTSVTVSS VL: SIVMTQTPKFLLVSAGDRVTITCKASQSVSNDVAWFQQKPGQSPELLIYSASNRYTGVPDRFTASGYGTDFTFTISAVQAEDLAVYFCQQNYYSPFTFGGGTRLEIK"
binds,3.23,"anti-GPNMB antibody GPN-65 (antibody, human IgG1, V domains shown, chimeric) VH: QLQLQQSGTEVVKPGASVKIPCKASGYAFSSYWMNWVKQRPGKGLEWIGQIYPGDGDTNDNGKFEGKATLTVDKSSNTAYIQLSSLTSEDSAVYFCARSPLHLRGSMDYWGQGTSVTVSS VL: SIVMTQTPKFLLVSAGDRVTITCKASQSVSNDVAWFQQKPGQSPELLIYSASNRYTGVPDRFTGSGYGTDFTFTISTVQAEDLAVYFCQQNYYSPFTFGGGTRLEIK"
binds,,"anti-GPNMB antibody GPN-48 (antibody, human IgG1, V domains shown, chimeric) VH: QVQLQQSGPELVKPGASVKLSCRASGYGFSSFWMNWVKQRPGKGLEWIGRIYPGKGDTLYNGKFKDKATLTADESSSTAYMQLSSLTSEDSAVYFCARSIYYYDYWYFDVWDTGTTVTVSS VL: DIVMTQSHKFMSTSVGDRVNITCKASQDVNSAIAWYQQKPGQSPKLLIYSASYRFIGVPDRFTGSGSGTGFTFTISSVQAEDLAVYYCQQHYTTPLTFGAGTKLELK"
binds,36.2,"anti-GPNMB antibody GPN-43 (antibody, human IgG1, V domains shown, chimeric) VH: EVQLQQSGPELVKPGASVKISCKASGYTFTDYYMNWVRQSHGKSLEWIGDINPYHGGSTYNQKIKVKATLTVDKSSSTAYMELRSLTSEDSAVYYCARNWPYFDYWGQGTTLTVSS VL: DIQMTQSPASLSASVGETVTITCRASENIYSFLVWYQQKQGKSPQLLVYNAKTLAEGVPSRFSGSGSGTQFSLKISSLQPEDFGSYYCQHHFGTPPYTFGGGTKLEIK"
